Target: cynomolgus monkey PVRIG on FlpinCHO-cyno PVRIG cells (cynomolgus monkey)
Experiment: FACS, FlpinCHO-cyno PVRIG cells

cynomolgus monkey PVRIG on FlpinCHO-cyno PVRIG cells (cynomolgus monkey), sequence (chain, as listed by the source): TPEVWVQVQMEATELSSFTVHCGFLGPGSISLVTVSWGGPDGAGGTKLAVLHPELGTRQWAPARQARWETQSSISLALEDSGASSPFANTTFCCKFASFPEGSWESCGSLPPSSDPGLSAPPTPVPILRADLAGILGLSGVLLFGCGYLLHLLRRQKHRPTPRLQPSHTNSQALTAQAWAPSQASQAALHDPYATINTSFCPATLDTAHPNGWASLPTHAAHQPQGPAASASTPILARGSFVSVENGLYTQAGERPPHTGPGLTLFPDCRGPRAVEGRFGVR

B1: PVRIG-A105-H3a (Fc fusion, not shown: a dimerising Fc or GST)
chain: EVQLVESGGGLVQPGGSLRLSCAASGRTFDRHTMTWFRQAPGKEREFVATASRIPGDTYYVDSVKGRFTISRDNAKNSVYLQMNSLRAEDTAVYYCAATSAYSSEVDSYEKGSWYDNWGQGTMVTVSS
- AUC % to COM701-hIgG1: 3.27%
- AUC % to SRF813-hIgG1: 4.05%
- AUC % to parental Ab: 3.74%

Source: patent US20240343803A1
